Laboratory results from article PMC9922296, “Mechanistic insights into RNA surveillance by the canonical poly(A) polymerase Pla1 of the MTREC complex” (Nature Communications, 2023).
Substitutions are numbered along the chain they refer to. Where “and” joins values, the source holds several entries; their conditions need not be identical. Equal entries are not always repeated. No end group written: not given here.

Experiments:
[1] = target: T1, Pla1_(EEQE): Pla1RRM with K559/R560/Q561/K562 changed to EEQE (S. pombe, UniProt Q10295 352-566, K559/R560/Q561/K562 to EEQE); assay: ITC
T1 sequence: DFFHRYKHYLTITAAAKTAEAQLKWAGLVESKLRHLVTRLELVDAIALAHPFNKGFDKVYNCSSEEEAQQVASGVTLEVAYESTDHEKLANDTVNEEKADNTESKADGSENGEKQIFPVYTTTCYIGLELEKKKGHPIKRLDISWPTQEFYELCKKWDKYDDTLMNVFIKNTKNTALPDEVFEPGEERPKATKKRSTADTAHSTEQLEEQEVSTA

[2] = target: T2, Pla1RRM with the charge reversal mutation K368E (S. pombe, UniProt Q10295 352-566, K368E); assay: ITC
T2 sequence: T1 sequence with K17E, E208K, E209R, E211K

[3] = target: T3, Pla1EEE: Pla1RRM with K544/K545/R546 changed to EEE (S. pombe, UniProt Q10295 352-566, K544/K545/R546 to EEE); assay: ITC
T3 sequence: T1 sequence with K193E, K194E, R195E, E208K, E209R, E211K

[4] = target: T4, Pla1RRM with the charge reversal mutation K368E (S. pombe, UniProt Q10295 352-566, K368E); assay: ITC; MicroCal PEAQ-ITC, 25 °C, 20 mM HEPES pH 7.5, 150 mM NaCl, 2 mM BME; 40-50 µM protein in the cell, 400-500 µM ligand in the syringe; one-binding site model; details: both partners purified
T4 construct: canonical poly(A) polymerase Pla1, S. pombe, RRM domain, residues 352-566 with K368E; source: E. coli BL21 (DE3) Rosetta2, purified; not shown: His6, N-terminal, cleaved
T4 sequence (looked up): T1 sequence with K17E, E208K, E209R, E211K

[5] = target: T5, Pla1_(EEQE): Pla1RRM with K559/R560/Q561/K562 changed to EEQE (S. pombe, UniProt Q10295 352-566, K559/R560/Q561/K562 to EEQE); assay: as above; details: both partners purified
T5 construct: canonical poly(A) polymerase Pla1, S. pombe, RRM domain, residues 352-566 with K559/R560/Q561/K562 to EEQE; source: E. coli BL21 (DE3) Rosetta2, purified; not shown: His6, N-terminal, cleaved
T5 sequence (looked up): T1 sequence

[6] = target: T6, Pla1EEE: Pla1RRM with K544/K545/R546 changed to EEE (S. pombe, UniProt Q10295 352-566, K544/K545/R546 to EEE); assay: as above; details: both partners purified
T6 construct: canonical poly(A) polymerase Pla1, S. pombe, RRM domain, residues 352-566 with K544/K545/R546 to EEE; source: E. coli BL21 (DE3) Rosetta2, purified; not shown: His6, N-terminal, cleaved
T6 sequence (looked up): T1 sequence with K193E, K194E, R195E, E208K, E209R, E211K

[7] = target: T7, C-terminal RRM domain of Pla1 (Pla1RRM, residues 352-566), purified (S. pombe, UniProt Q10295 352-566); assay: as above; details: both partners purified
T7 construct: canonical poly(A) polymerase Pla1, S. pombe, C-terminal RRM domain, residues 352-566; also called Pla1 CTD; source: E. coli BL21 (DE3) Rosetta2, purified (His-Trap, TEV cleavage, Resource Q, Superdex 200); not shown: His6, N-terminal, cleaved
T7 sequence (looked up): T1 sequence with E208K, E209R, E211K

[8] = target: T7, C-terminal RRM domain of Pla1 (Pla1RRM, …); assay: ITC; competition: Red1_(288-345) titrated into Pla1RRM pre-incubated with a 1.1-fold molar excess of Iss1_(30-76); 25 °C, 20 mM HEPES pH 7.5, 150 mM NaCl, 2 mM BME; details: both partners purified
[9] = target: T8, Pla1RRM (C-terminal RRM domain of Pla1, residues 352-566) (S. pombe, UniProt Q10295 352-566); assay: ITC; competition: Red1 288-345 titrated into Pla1RRM pre-incubated with a 1.1-fold molar excess of Iss1 30-76; 25 °C; 20 mM HEPES pH 7.5, 150 mM NaCl, 2 mM BME; details: both partners purified
T8 construct: Pla1, canonical poly(A) polymerase, S. pombe, C-terminal RRM domain, residues 352-566; also called Pla1 RRM domain; Pla1 CTD; source: E. coli BL21 (DE3) Rosetta2, purified (His-Trap, TEV cleavage, Resource Q, Superdex 200); not shown: His6, N-terminal, cleaved
T8 sequence (looked up): T1 sequence with E208K, E209R, E211K

Pla1RRM EEE = target: T9, Pla1RRM EEE (S. pombe, UniProt Q10295 352-566, K544/K545/R546 to EEE); assay: ITC; Red1 or Iss1 construct in the syringe (400-500 µM) titrated into Pla1RRM (wild type or mutant) in the cell (40-50 µM); 25 °C; 20 mM HEPES pH 7.5, 150 mM NaCl, 2 mM BME; one-binding site model; each independent measurement listed; details: both partners purified
T9 construct: Pla1, S. pombe, C-terminal RRM domain, residues 352-566; also called Pla1EEE; K544/K545/R546 to EEE; source: E. coli BL21 (DE3) Rosetta2, purified (His-Trap, TEV cleavage, Resource Q, Superdex 200); not shown: His6, N-terminal, cleaved
T9 sequence (looked up): T1 sequence with K193E, K194E, R195E, E208K, E209R, E211K

Pla1RRM K368E = target: T10, Pla1RRM K368E (S. pombe, UniProt Q10295 352-566, K368E); assay: as above; details: both partners purified
T10 construct: Pla1, S. pombe, C-terminal RRM domain, residues 352-566; source: E. coli BL21 (DE3) Rosetta2, purified (His-Trap, TEV cleavage, Resource Q, Superdex 200); not shown: His6, N-terminal, cleaved
T10 sequence (looked up): T1 sequence with K17E, E208K, E209R, E211K

[10] = target: T8, Pla1RRM (C-terminal RRM domain of Pla1, …); assay: as above; details: both partners purified
Pla1RRM EEQE = target: T11, Pla1RRM EEQE (S. pombe, UniProt Q10295 352-566, K559/R560/Q561/K562 to EEQE); assay: as above; details: both partners purified
T11 construct: Pla1, S. pombe, C-terminal RRM domain, residues 352-566; also called Pla1_(EEQE); K559/R560/Q561/K562 to EEQE; source: E. coli BL21 (DE3) Rosetta2, purified (His-Trap, TEV cleavage, Resource Q, Superdex 200); not shown: His6, N-terminal, cleaved
T11 sequence (looked up): T1 sequence

[11] = target: T8, Pla1RRM (C-terminal RRM domain of Pla1, …); assay: ITC; control of the competition: Iss1 30-76 titrated into Pla1RRM pre-incubated with a 1.1-fold molar excess of Red1 288-345 W298A/F305A; 25 °C; 20 mM HEPES pH 7.5, 150 mM NaCl, 2 mM BME; details: both partners purified
[12] = target: T8, Pla1RRM (C-terminal RRM domain of Pla1, …); assay: NMR titration; 1.5-fold molar excess of unlabelled Pla1RRM added to 0.3 mM 15N-labelled GB1-tagged Red1 constructs; 1H,15N-HSQC; 293 K; sodium phosphate pH 6.5, 100 mM NaCl; details: both partners purified

B1: Red1 residues 288-345 (Pla1 interaction region), purified (domain or fragment, S. pombe, UniProt Q9UTR8 288-345, looked up)
chain: ISLPLLKQDDWLSSSKPFGSSTPNVVIEFDSDDDGDDFSNSKIEQSNLEKPPSNSENG
notes: source: E. coli BL21 (DE3), purified (His-Trap, TEV cleavage, second IMAC, Superdex 75); not shown: GB1, N-terminal, cleaved; His6, C-terminal, kept
Kd [1]: 2.8 µM
Kd [2]: 17.8 µM
Kd [3]: 9.8 µM
fold loss in affinity against wild-type Pla1RRM [4]: ~13 fold
fold loss in affinity against wild-type Pla1RRM [5]: ~2 fold
fold loss in affinity against wild-type Pla1RRM [6]: ~7 fold
Kd [7]: 1.4 µM
KD into the pre-formed Pla1RRM-Iss1_(30-76) complex [8]: 11 µM

B2: Red1 288-345 (domain or fragment, S. pombe)
chain: B1 chain
notes: as for B1
stoichiometry N [9]: 1.11 and 1.82
Kd (Pla1RRM EEE): 9.43 µM and 9.98 µM
stoichiometry N (Pla1RRM EEE): 0.86 and 0.94
Kd (Pla1RRM K368E): 15.3 µM and 20.3 µM
stoichiometry N (Pla1RRM K368E): 0.8 and 1
Kd [10]: 1.56 µM and 1.15 µM and 1.37 µM
stoichiometry N [10]: 1.05 and 0.952 and 1.19
Kd (Pla1RRM EEQE): 3.28 µM and 2.27 µM
stoichiometry N (Pla1RRM EEQE): 1.03 and 0.97

B3: Iss1 30-76 (domain or fragment, S. pombe)
chain: VSNAKSPEQASEESDDSDIEFIIETKPGERAEPLGGSIATLGSTRPS
notes: Iss1 (fission yeast orthologue of scFip1), S. pombe, residues 30-76; source: E. coli BL21 (DE3) Rosetta2, purified (His-Trap, TEV cleavage, second IMAC flow-through, Superdex 75); not shown: His-Thioredoxin, N-terminal, cleaved
stoichiometry N [11]: 0.97 and 1
Kd [10]: 2.11 µM and 2.94 µM
stoichiometry N [10]: 1

B4: GB1-tagged Red1 288-322 (domain or fragment, S. pombe)
chain: ISLPLLKQDDWLSSSKPFGSSTPNVVIEFDSDDDG
modifications: not fully specified (N-terminus); also: 15N-labelled
notes: source: E. coli BL21 (DE3), 15N-labelled in M9 minimal medium, purified; not shown: GB1, N-terminal, kept; His6, C-terminal, kept
binding result [12]: binds
